Measured values published in patent publication US20050222402A1, “Dna encoding rat bombesin receptor subtype-3 (brs-3) and uses thereof” (priority 2001, published 2005).
Changes are numbered by the printed parent chain. No end group written: not given here.

Legend:
RBB3-E3 (rat; human) = RBB3-E3 (rat; human) (UniProt Q8K418); test: cell-based or functional assay
RB3-SQT (rat) = RB3-SQT (rat) (UniProt Q8K418); test: cell-based or functional assay
RB3-AMH (rat) = RB3-AMH (rat) (UniProt Q8K418); test: cell-based or functional assay
[1] = molecular target: rat bombesin receptor subtype-3 (rat) (UniProt Q8K418); test: cell-based or functional assay
[2] = molecular target: human bombesin receptor subtype-3 (human) (UniProt P32247); test: cell-based or functional assay
Chain of human bombesin receptor subtype-3 (human) (P32247 whole entry): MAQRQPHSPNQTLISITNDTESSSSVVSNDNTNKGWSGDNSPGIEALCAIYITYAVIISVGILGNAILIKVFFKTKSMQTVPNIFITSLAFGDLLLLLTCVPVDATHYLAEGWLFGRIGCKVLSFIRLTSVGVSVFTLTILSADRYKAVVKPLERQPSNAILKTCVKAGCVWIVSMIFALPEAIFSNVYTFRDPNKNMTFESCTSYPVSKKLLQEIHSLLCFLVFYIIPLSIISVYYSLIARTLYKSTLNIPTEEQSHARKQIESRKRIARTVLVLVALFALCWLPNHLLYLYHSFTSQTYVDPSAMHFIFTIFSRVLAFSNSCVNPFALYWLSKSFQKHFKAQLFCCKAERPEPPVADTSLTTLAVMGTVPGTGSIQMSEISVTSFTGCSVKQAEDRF

RB3-IF (rat) = RB3-IF (rat) (UniProt Q8K418); test: cell-based or functional assay
RB3-VD (rat) = RB3-VD (rat) (UniProt Q8K418); test: cell-based or functional assay
[3] = molecular target: rat bombesin receptor subtype-3 (rat) (UniProt Q8K418); test: summary statement in the description; assay not named
rat BRS-3 [4] = molecular target: T1, rat BRS-3 (Rattus norvegicus, UniProt Q8K418); test: Phosphatidylinositol hydrolysis functional assay; format: cell-based; details: peptide at 10 uM, transfected 293EBNA cells
T1 construct: utilized to PCR amplify full-length rat BRS-3 cDNA; expressed in transfected cells; host or cells: 293EBNA cells, pE3 expression vector
T1 sequence (Q8K418 1-399): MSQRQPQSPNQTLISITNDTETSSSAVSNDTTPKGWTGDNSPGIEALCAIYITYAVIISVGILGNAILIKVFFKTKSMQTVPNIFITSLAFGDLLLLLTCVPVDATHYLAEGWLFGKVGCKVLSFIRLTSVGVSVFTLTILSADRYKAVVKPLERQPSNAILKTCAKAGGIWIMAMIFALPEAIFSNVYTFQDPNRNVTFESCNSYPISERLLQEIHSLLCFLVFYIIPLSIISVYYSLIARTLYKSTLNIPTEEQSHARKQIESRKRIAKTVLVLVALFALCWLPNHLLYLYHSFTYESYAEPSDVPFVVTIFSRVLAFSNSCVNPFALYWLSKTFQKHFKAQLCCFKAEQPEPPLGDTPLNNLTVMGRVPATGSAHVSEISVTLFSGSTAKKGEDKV
Method: (§1) Wild type and mutant BRS-3 constructs were transfected by using lipofectamine reagents (Life Technologies, Rockville, Md.) into 293EBNA cells (Invitrogen, Carlsbad, Calif.) which support episomal replication of plasmid containing Epstein Bar virus OriP segment. Stable cell lines were obtained by selection with 250 ug/ml hygromycin. The cells were maintained as monolayers in Dulbecco's modified Eagle's medium (Life Technologies, Rockville, Md.) supplemented with 10% fetal bovine serum and incubated at 37° C. in a humidified 5% CO2 incubator.
The functional properties of rat BRS-3 were characterized in transfected 293EBNA cells. The transfected 293EBNA cells were plated onto poly-D-lysine coated 12-well plates and incubated in the medium containing 2 uCi/ml [^3H]myo-inositol. The cells were labeled for 48 hrs, and subsequently incubated for 30 minutes in Hank's balanced salt solution containing 10 mM HEPES, 0.1% BSA and 10 mM LiCl.
Since a natural agonist of BRS-3 has not been found, members of the bombesin-like peptide family, including GRP, NMB, bombesin and dYB, were used to stimulate the transfected cells described above, in the same buffer, for 1 hr at 37° C. The reaction was stopped by removal of medium and addition of 10 mM formic acid. The inositol monophosphate fraction was then isolated by anion chromatography as described (Berridge et al. Biochem. J. 212: 473-482 (1983), which is hereby incorporated by reference).

RBB3-E3 = molecular target: T2, RBB3-E3 (Rattus norvegicus, UniProt Q8K418, A302V/D306A/E299Q/E303D/P308H/S300T/V307M/V310I/V311F/Y298S); test: Radioligand binding assay with 125I-dYB; design: species or system rat/human; details: competition with [125I]dYB
T2 construct: expressed in transfected cells; host or cells: 293EBNA cells, pE3 expression vector
T2 sequence (Q8K418 1-399 Y298S/E299Q/S300T/A302V/E303D/D306A/V307M/P308H/V310I/V311F): T1 sequence (Q8K418 1-399) with Y298S, E299Q, S300T, A302V, E303D, D306A, V307M, P308H, V310I, V311F
Method: After removal of cell nuclei by a low speed centrifugation (1000×g) step, the cell membrane proteins were collected by centrifugation at 35,000×g for 20 minutes. The membrane protein concentration was determined by the Bradford method using BSA as standard.
After a 2 hr incubation at room temperature, the binding reaction was terminated by filtering through a GF/c filter-mate and washing the filter with binding buffer using Packard 96-well Topcount Harvester. The amount of radioligand bound to the receptor was determined by measurement of the radioactivity on the filter through liquid scintillation counting. The non-specific binding was defined as the binding in the presence of 1 uM unlabeled dYB.

rat BRS-3 [5] = molecular target: T1, rat BRS-3; test: Calcium mobilization assay (FLIPR), transfected 293EBNA cells; format: cell-based
Method: as §1
The functional activity of rat BRS-3 was also studied by measuring the agonist-induced calcium mobilization response using a Fluorescence Imaging Plate Reader (Molecular Devices, Sunnyvale, Calif.). Transfected 293EBNA cells were plated onto poly-D-lysine coated 96-well plates with black wall and clear bottom (Becton Dickinson, Franklin Lakes, N.J.). After 16-48 hr culture, the cells were loaded with 4 uM Fluo-3-AM fluorescent calcium-indicator dye (Molecular Probes, Eugene, OR) in assay buffer (Hank's balanced salts solution, 10 mM HEPES, pH7.4, 0.1% bovine serum albumin, 2.5 mM probenecid).
The changes in intracellular calcium concentration, as indicated by Fluo-3 fluorescence, were immediately measured by FLIPR. Maximal changes in fluorescence over base line were used to determine agonist response.
The EC50 values were mean±S.E. calculated from dose-response curves of 3-5 repeated experiments using FLIPR assays.

Substance “[D-Tyr6-betaAla11-Phe13-Nle14] bombesin (6-14) (peptide)” has an EC50, calcium mobilization (FLIPR) (RBB3-E3 (rat; human)) of 0.0028 µM, an EC50, calcium mobilization (FLIPR) (RB3-SQT (rat)) of 0.39 µM and a fold improvement of dYB potency against rat BRS-3, calcium mobilization (RB3-SQT (rat)) of 5 fold. The EC50, calcium mobilization (FLIPR) (RB3-AMH (rat)) was 0.37 µM, the fold improvement of dYB potency against rat BRS-3, calcium mobilization (RB3-AMH (rat)) was 6 fold and the EC50, calcium mobilization (FLIPR) [1] was 2.2 µM. It also gave a fold difference in dYB potency between human and rodent BRS-3 [1] of 1000 fold, a phosphatidylinositol (PI) hydrolysis, inositol monophosphate production, peptide at 10 uM [1] of 9 fold and an EC50, calcium mobilization (FLIPR) [2] of 0.0012 µM. The EC50, calcium mobilization (FLIPR) (RB3-IF (rat)) was 1.3 µM, the EC50, calcium mobilization (FLIPR) (RB3-VD (rat)) was 0.93 µM and the fold lower affinity than human BRS-3 [3] was 1000 fold.
“gastrin-releasing peptide (VPLPAGGGTVLTKMYPRGNHWAVGHLM; ends and bridges not checked; UniProt P07492 24-50, looked up) [GRP, bombesin-like peptide found in mammals]” was tested, and the “stimulation of phosphatidylinositol (PI) hydrolysis (inositol monophosphate production)” value (rat BRS-3 [4]) was “significant increase”, the binding affinity (RBB3-E3) was “uM low affinities” and the intracellular calcium response (rat BRS-3 [5]; concentrations below 1.0 uM) was “none of the four peptides could stimulate a significant calcium response”. For the same substance, the intracellular calcium response (rat BRS-3 [5]; peptide at 10 uM) was “transient increase in intracellular calcium concentration”.
neuromedin B [NMB] was tested, and the “stimulation of phosphatidylinositol (PI) hydrolysis (inositol monophosphate production)” value (rat BRS-3 [4]) was “significant increase”, the binding affinity (RBB3-E3) was “uM low affinities” and the intracellular calcium response (rat BRS-3 [5]; concentrations below 1.0 uM) was “none of the four peptides could stimulate a significant calcium response”. For the same substance, the intracellular calcium response (rat BRS-3 [5]; peptide at 10 uM) was “transient increase in intracellular calcium concentration”.
phyllolitorin was tested, and the binding affinity (RBB3-E3) was “uM low affinities”.
